The series addresses hSOX2-HMG (Homo sapiens, UniProt P48431). Kind of series: EMSA. In general terms: A gel shift assay detects complexes by their altered migration in electrophoresis.

B1: P1/P2 SOX2 binding DNA (dsDNA)
DNA 1: GGAAACAATGGA
DNA 2: TCCATTGTTTCC
Usually Kd stands for a measure of binding affinity in units of concentration. Take B1: the Kd was about 610 nM.
